{"source": "patent US20210057047A1", "about": "“IN-SILICO METHOD FOR DESIGNING A (D)-POLYPEPTIDE LIGAND” (THE GOVERNING COUNCIL OF THE UNIVERSITY OF TORONTO, priority 2018, published 2021)", "key": {"Proteinase K (ProtK)": {"target": "T1, Proteinase K (ProtK) (Parengyodontium album, UniProt P06873)", "T1 construct": "purchased Bioshop", "T1 sequence (P06873 106-384)": "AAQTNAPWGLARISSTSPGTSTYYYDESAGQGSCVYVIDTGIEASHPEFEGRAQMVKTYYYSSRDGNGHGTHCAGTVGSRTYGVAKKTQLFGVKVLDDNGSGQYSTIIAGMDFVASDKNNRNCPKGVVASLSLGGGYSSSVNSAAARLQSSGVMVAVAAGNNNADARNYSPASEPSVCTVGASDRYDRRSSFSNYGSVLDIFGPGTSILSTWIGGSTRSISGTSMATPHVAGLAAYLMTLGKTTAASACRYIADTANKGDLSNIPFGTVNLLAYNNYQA", "assay": "in vitro", "assay_type": "in vitro ADME", "method": "Stocks of 20 μM peptide in 200 μL total volume (10 mM Tris-base, 10 mM NaCl, pH 7.4) were supplemented with 5 μM CaCl2) and 30 uL removed for the untreated T0 sample. Proteinase K (ProtK, Bioshop) was then added to a final concentration of 100 μg/mL. Samples were incubated at 37° C. and 30 μL removed after each time point and protease activity blocked by the addition of 10 mM PMSF (200 mM stock dissolved in isopropanol). Protease inactivated samples were frozen at −20° C. until further use. Digestions were repeated three times. Frozen samples were supplemented with 8 μL sample loading buffer (4× NuPAGE, ThermoFisher Scientific), boiled ([…]) for 10 minutes, and centrifuged (12 000 rpm, 10 min) prior to loading the gel (12% NuPAGE Bis-Tris (ThermoFisher Scientific) with MES running buffer). Gels were run at 200 V for […] and stained using Coomassie Brilliant Blue dye. Densitometry of bands was determined using ImageJ software (40) with back ground subtraction. All samples were normalized to their respective untreated sample (T0)."}, "pCDNA3.1 HEK293 cells": {"tested_on": "pCDNA3.1 HEK293 cells", "assay": "CRE-luciferase reporter assay in control pCDNA3.1 HEK293 cells", "assay_type": "cell-based", "details": "pCDNA3.1 HEK293 cells without GLP1 receptor"}, "[1]": {"details": "FDA approved peptide drugs, Table 1; cited from earlier work"}, "GLP1 receptor (GLP1R)": {"target": "GLP1 receptor (GLP1R) (human, UniProt P43220 24-463)", "assay": "cell-based or functional assay"}}, "note": "Read-outs that look alike come from different tables or passages of the source. Square brackets hold non-standard residues; d marks the D form. Ends that are not written are not given here. Peptide text beside a SMILES is read from it.", "data": [{"molecule": "CC[C@@H](C)[C@@H](NC(=O)[C@@H](C)NC(=O)[C@@H](CCC(=O)O)NC(=O)[C@H](NC(=O)[C@@H](CC(C)C)NC(=O)[C@@H](CCC(=O)O)NC(=O)CNC(=O)[C@@H](C)NC(=O)[C@@H](C)NC(=O)[C@@H](CC(C)C)NC(=O)[C@H](NC(=O)[C@@H](Cc1ccccc1)NC(=O)[C@@H](CC(C)C)NC(=O)[C@@H](CCC(=O)O)NC(=O)[C@@H](CC(C)C)NC(=O)[C@@H](Cc1ccccc1)NC(=O)[C@@H](C)NC(=O)[C@@H](CCCCN)NC(=O)CNC(=O)[C@H](N)CCCNC(=N)N)[C@H](C)CC)[C@H](C)CC)C(=O)N[C@H](CC(=O)O)C(=O)N[C@H](CCCNC(=N)N)C(=O)N[C@@H](C(=O)N[C@H](Cc1ccccc1)C(=O)N[C@@H](C(=O)NCC(=O)N[C@H](CCC(=O)O)C(=O)N[C@H](C)C(=O)N[C@H](Cc1c[nH]cn1)C(=O)O)[C@H](C)O)[C@H](C)O", "note": "[(D)-GLP1] (H-[dR]G[dK][dA][dF][dL][dE][dL][dF][dI][dL][dA][dA]G[dE][dL][dI][dE][dA][dI][dD][dR][dT][dF][dT]G[dE][dA][dH]-OH; N-terminus and C-terminus assumed)", "values": [{"measurement": "degradation by ProtK (in words)", "setting": "Proteinase K (ProtK)", "value": "persists after 5 hours"}]}, {"molecule": "CC[C@H](C)[C@H](NC(=O)[C@H](Cc1ccccc1)NC(=O)[C@H](CCC(=O)O)NC(=O)[C@H](CCCCN)NC(=O)[C@H](C)NC(=O)[C@H](C)NC(=O)[C@H](CCC(N)=O)NC(=O)CNC(=O)[C@H](CCC(=O)O)NC(=O)[C@H](CC(C)C)NC(=O)[C@H](Cc1ccc(O)cc1)NC(=O)[C@H](CO)NC(=O)[C@H](CO)NC(=O)[C@@H](NC(=O)[C@H](CC(=O)O)NC(=O)[C@H](CO)NC(=O)[C@@H](NC(=O)[C@H](Cc1ccccc1)NC(=O)[C@@H](NC(=O)CNC(=O)[C@H](CCC(=O)O)NC(=O)[C@H](C)NC(=O)[C@@H](N)Cc1c[nH]cn1)[C@@H](C)O)[C@@H](C)O)C(C)C)C(=O)N[C@@H](C)C(=O)N[C@@H](Cc1c[nH]c2ccccc12)C(=O)N[C@@H](CC(C)C)C(=O)N[C@H](C(=O)N[C@@H](CCCCN)C(=O)NCC(=O)N[C@@H](CCCNC(=N)N)C(=O)O)C(C)C", "note": "[(L)-GLP1]", "values": [{"measurement": "luciferase expression (in words)", "setting": "pCDNA3.1 HEK293 cells", "value": "inactive"}]}, {"molecule": "CC(C)C[C@H](NC(=O)[C@H](CCCCN)NC(=O)CNC(=O)[C@H](CC(C)C)NC(=O)[C@@H](NC(=O)[C@@H]1CSSC[C@H](N)C(=O)N[C@@H](CO)C(=O)N[C@@H](CC(N)=O)C(=O)N[C@@H](CC(C)C)C(=O)N[C@@H](CO)C(=O)N[C@@H]([C@@H](C)O)C(=O)N1)C(C)C)C(=O)N[C@@H](CO)C(=O)N[C@@H](CCC(N)=O)C(=O)N[C@@H](CCC(=O)O)C(=O)N[C@@H](CC(C)C)C(=O)N[C@@H](Cc1c[nH]cn1)C(=O)N[C@@H](CCCCN)C(=O)N[C@@H](CC(C)C)C(=O)N[C@@H](CCC(N)=O)C(=O)N[C@H](C(=O)N[C@@H](Cc1ccc(O)cc1)C(=O)N1CCC[C@H]1C(=O)N[C@@H](CCCNC(=N)N)C(=O)N[C@H](C(=O)N[C@@H](CC(N)=O)C(=O)N[C@H](C(=O)NCC(=O)N[C@@H](CO)C(=O)NCC(=O)N[C@H](C(=O)N1CCC[C@H]1C(N)=O)[C@@H](C)O)[C@@H](C)O)[C@@H](C)O)[C@@H](C)O", "note": "[Calcitonin]", "values": [{"measurement": "t½", "setting": "[1]", "value": 0.967, "unit": "h"}]}, {"molecule": "CC[C@H](C)[C@H](NC(=O)[C@H](Cc1ccccc1)NC(=O)[C@H](CC(=O)O)NC(=O)[C@H](CCCNC(=N)N)NC(=O)[C@H](C)NC(=O)[C@H](C)NC(=O)[C@H](CC(C)C)NC(=O)[C@H](CC(N)=O)NC(=O)[C@H](CC(=O)O)NC(=O)[C@H](CC(C)C)NC(=O)[C@@H](NC(=O)[C@@H](NC(=O)[C@H](CC(N)=O)NC(=O)[C@H](CCSC)NC(=O)[C@H](CCC(=O)O)NC(=O)[C@H](CC(=O)O)NC(=O)[C@H](CO)NC(=O)[C@H](Cc1ccccc1)NC(=O)[C@H](CO)NC(=O)CNC(=O)[C@H](CC(=O)O)NC(=O)CNC(=O)[C@@H](N)Cc1c[nH]cn1)[C@@H](C)O)[C@@H](C)CC)C(=O)N[C@@H](CC(N)=O)C(=O)N[C@@H](Cc1c[nH]c2ccccc12)C(=O)N[C@@H](CC(C)C)C(=O)N[C@H](C(=O)N[C@@H](CCC(N)=O)C(=O)N[C@H](C(=O)N[C@@H](CCCCN)C(=O)N[C@H](C(=O)N[C@H](C(=O)N[C@@H](CC(=O)O)C(=O)O)[C@@H](C)O)[C@@H](C)CC)[C@@H](C)O)[C@@H](C)CC", "note": "[Teduglutide]", "values": [{"measurement": "t½", "setting": "[1]", "value": 1.33, "unit": "h"}]}, {"molecule": "(L)-GLP-2: native GLP-2, gastrointestinal peptide", "values": [{"measurement": "time until all peptide is degraded", "setting": "Proteinase K (ProtK); exposure to ProtK, 37° C.", "value": "about 1 hr"}, {"measurement": "degradation by ProtK (in words)", "setting": "Proteinase K (ProtK); treatment with ProtK over 5 hours", "value": "rapid degradation"}]}, {"molecule": "(L)-PTH: native parathyroid hormone, residues 1-34", "values": [{"measurement": "degradation by ProtK (in words)", "setting": "Proteinase K (ProtK)", "value": "rapid degradation"}, {"measurement": "time until all peptide is degraded", "setting": "Proteinase K (ProtK)", "value": "under 1 hr"}]}, {"molecule": "Glucagon", "values": [{"measurement": "t½", "setting": "[1]", "value": 0.25, "unit": "h"}]}, {"molecule": "Parathyroid Hormone", "values": [{"measurement": "t½", "setting": "[1]", "value": 3, "unit": "h"}]}, {"molecule": "Sermorelin", "values": [{"measurement": "t½", "setting": "[1]", "value": 0.2, "unit": "h"}]}, {"molecule": "Thymosin (Ac-SDAAVDTSSEITTKDLKEKKEVVEEAEN; UniProt P06454 2-29, looked up) [FDA approved peptide drug, hepatitis, cancer]", "values": [{"measurement": "t½", "setting": "[1]", "value": 2, "unit": "h"}]}, {"molecule": "[dR]G[dK][dA][dF][dL][dE][dL][dF][dI][dL][dA][dA]G[dE][dL][dI][dE][dA][dI][dD][dR][dT][dF][dT]G[dE][dA][dH] (designed binder)", "note": "[(D)-GLP1 peptide]", "values": [{"measurement": "EC50, CRE-luciferase expression", "setting": "GLP1 receptor (GLP1R)", "value": 2200, "unit": "nM"}, {"measurement": "potency relative to the native peptide", "setting": "GLP1 receptor (GLP1R)", "value": "~40", "unit": "fold lower"}]}]}
